Experimental findings from PMC12033333 (Nature Communications, 2025) are described below.

B1: GST-PIF3 (natural protein)
chain: MPLFELFRLTKAKLESAQDRNPSPPVDEVVELVWENGQISTQSQSSRSRNIPPPQANSSRAREIGNGSKTTMVDEIPMSVPSLMTGLSQDDDFVPWLNHHPSLDGYCSDFLRDVSSPVTVNEQESDMAVNQTAFPLFQRRKDGNESAPAASSSQYNGFQSHSLYGSDRARDLPSQQTNPDRFTQTQEPLITSNKPSLVNFSHFLRPATFAKTTNNNLHDTKEKSPQSPPNVFQTRVLGAKDSEDKVLNESVASATPKDNQKACLISEDSCRKDQESEKAVVCSSVGSGNSLDGPSESPSLSLKRKHSNIQDIDCHSEDVEEESGDGRKEAGPSRTGLGSKRSRSAEVHNLSERRRRDRINEKMRALQELIPNCNKVDKASMLDEAIEYLKSLQLQVQIMSMASGYYLPPAVMFPPGMGHYPAAAAAMAMGMGMPYAMGLPDLSRGGSSVNHGPQFQVSGMQQQPVAMGIPRVSGGGIFAGSSTIGNGSTRDLSGSKDQTTTNNNSNLKPIKRKQGSSDQFCGSS
B2: GST-tagged PIF1 (natural protein)
chain: MHHFVPDFDTDDDYVNNHNSSLNHLPRKSITTMGEDDDLMELLWQNGQVVVQNQRLHTKKPSSSPPKLLPSMDPQQQPSSDQNLFIQEDEMTSWLHYPLRDDDFCSDLLFSAAPTATATATVSQVTAARPPVSSTNESRPPVRNFMNFSRLRGDFNNGRGGESGPLLSKAVVRESTQVSPSATPSAAASESGLTRRTDGTDSSAVAGGGAYNRKGKAVAMTAPAIEITGTSSSVVSKSEIEPEKTNVDDRKRKEREATTTDETESRSEETKQARVSTTSTKRSRAAEVHNLSERKRRDRINERMKALQELIPRCNKSDKASMLDEAIEYMKSLQLQIQMMSMGCGMMPMMYPGMQQYMPHMAMGMGMNQPIPPPSFMPFPNMLAAQRPLPTQTHMAGSGPQYPVHASDPSRVFVPNQQYDPTSGQPQYPAGYTDPYQQFRGLHPTQPPQFQNQATSYPSSSRVSSSKESEDHGNHTTG
B3: SBP-fused phyB^PSM (domain or fragment)
chain: MVSGVGGSGGGRGGGRGGEEEPSSSHTPNNRRGGEQAQSSGTKSLRPRSNTESMSKAIQQYTVDARLHAVFEQSGESGKSFDYSQSLKTTTYGSSVPEQQITAYLSRIQRGGYIQPFGCMIAVDESSFRIIGYSENAREMLGIMPQSVPTLEKPEILAMGTDVRSLFTSSSSILLERAFVAREITLLNPVWIHSKNTGKPFYAILHRIDVGVVIDLEPARTEDPALSIAGAVQSQKLAVRAISQLQALPGGDIKLLCDTVVESVRDLTGYDRVMVYKFHEDEHGEVVAESKRDDLEPYIGLHYPATDIPQASRFLFKQNRVRMIVDCNATPVLVVQDDRLTQSMCLVGSTLRAPHGCHSQYMANMGSIASLAMAVIINGNEDDGSNVASGRSSMRLWGLVVCHHTSSRCIPFPLRYACEFLMQAFGLQLNMELQLALQMSEKRVLRTQTLLCDMLLRDSPAGIVTQSPSIMDLVKCDGAAFLYHGKYYPLGVAPSEVQIKDVVEWLLANHADSTGLSTDSLGDAGYPGAAALGDAVCGMAVAYITKRDFLFWFRSHTAKEIKWGGAKHHPEDKDDGQRMHPRSSFQAFLEVVKSRSQPWETAEMDAIHSLQLILRDSFKESEAAMNSKVVDGVVQPCRDMAGEQGIDELGAV
modifications: chromophore-bound (phycocyanobilin, PCB)
B4: GST-fused APB (PIF3 1-113 a.a.) (domain or fragment)
chain: MPLFELFRLTKAKLESAQDRNPSPPVDEVVELVWENGQISTQSQSSRSRNIPPPQANSSRAREIGNGSKTTMVDEIPMSVPSLMTGLSQDDDFVPWLNHHPSLDGYCSDFLRD

Holding throughout (test): pull-down
Assay [1] deals with T1, SBP-fused full-length phyA (Arabidopsis thaliana, UniProt P14712 1-1122, chromophore-bound (phycocyanobilin, PCB)).
T1 sequence: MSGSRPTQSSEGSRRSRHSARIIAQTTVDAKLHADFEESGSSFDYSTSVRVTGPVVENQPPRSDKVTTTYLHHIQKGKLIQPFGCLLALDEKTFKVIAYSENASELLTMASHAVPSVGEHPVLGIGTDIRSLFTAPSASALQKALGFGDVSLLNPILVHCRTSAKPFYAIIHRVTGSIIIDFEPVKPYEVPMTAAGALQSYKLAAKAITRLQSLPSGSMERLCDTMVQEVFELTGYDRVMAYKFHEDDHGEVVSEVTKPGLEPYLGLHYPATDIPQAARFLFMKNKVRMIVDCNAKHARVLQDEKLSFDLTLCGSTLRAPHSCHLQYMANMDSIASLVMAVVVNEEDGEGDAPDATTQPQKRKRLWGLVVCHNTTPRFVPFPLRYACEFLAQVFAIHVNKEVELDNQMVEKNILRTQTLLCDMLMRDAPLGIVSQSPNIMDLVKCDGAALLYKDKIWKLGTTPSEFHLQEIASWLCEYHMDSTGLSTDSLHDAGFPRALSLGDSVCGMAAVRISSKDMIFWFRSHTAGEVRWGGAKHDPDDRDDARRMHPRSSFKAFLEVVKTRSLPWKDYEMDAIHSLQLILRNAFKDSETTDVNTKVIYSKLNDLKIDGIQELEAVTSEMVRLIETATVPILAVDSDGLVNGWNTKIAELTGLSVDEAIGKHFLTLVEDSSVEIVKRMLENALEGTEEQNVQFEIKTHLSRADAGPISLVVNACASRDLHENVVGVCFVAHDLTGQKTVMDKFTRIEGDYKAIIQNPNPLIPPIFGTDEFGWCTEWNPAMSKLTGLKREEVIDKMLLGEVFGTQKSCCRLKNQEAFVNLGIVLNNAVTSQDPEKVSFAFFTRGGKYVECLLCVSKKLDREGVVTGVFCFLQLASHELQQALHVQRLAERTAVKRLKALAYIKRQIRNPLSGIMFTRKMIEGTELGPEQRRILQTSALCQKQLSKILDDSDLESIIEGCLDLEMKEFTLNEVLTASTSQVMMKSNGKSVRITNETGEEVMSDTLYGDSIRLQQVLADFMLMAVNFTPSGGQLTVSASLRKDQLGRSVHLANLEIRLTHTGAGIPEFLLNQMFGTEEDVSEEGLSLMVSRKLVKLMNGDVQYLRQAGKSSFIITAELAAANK

Assay [2] addresses B3.
In assay [3] the target is T2, MBP-fused phyB^OPM (Arabidopsis thaliana, UniProt P14713 642-1172).
T2 sequence: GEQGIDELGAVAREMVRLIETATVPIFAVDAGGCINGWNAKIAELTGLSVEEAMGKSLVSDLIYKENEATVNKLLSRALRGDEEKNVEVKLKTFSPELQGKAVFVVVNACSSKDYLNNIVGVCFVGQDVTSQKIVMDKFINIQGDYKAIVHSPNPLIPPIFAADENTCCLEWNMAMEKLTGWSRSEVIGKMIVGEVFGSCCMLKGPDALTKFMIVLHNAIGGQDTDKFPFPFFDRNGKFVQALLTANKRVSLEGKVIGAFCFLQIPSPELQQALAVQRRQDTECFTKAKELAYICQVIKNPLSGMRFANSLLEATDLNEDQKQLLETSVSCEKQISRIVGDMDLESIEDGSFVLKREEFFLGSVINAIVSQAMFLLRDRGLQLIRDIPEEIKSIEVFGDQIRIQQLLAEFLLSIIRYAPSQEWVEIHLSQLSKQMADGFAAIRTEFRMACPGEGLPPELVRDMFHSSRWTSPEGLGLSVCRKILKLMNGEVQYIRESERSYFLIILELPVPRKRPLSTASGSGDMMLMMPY

In assay [4] the target is T3, MBP-fused phyA^OPM (Arabidopsis thaliana, UniProt P14712 608-1122).
T3 sequence: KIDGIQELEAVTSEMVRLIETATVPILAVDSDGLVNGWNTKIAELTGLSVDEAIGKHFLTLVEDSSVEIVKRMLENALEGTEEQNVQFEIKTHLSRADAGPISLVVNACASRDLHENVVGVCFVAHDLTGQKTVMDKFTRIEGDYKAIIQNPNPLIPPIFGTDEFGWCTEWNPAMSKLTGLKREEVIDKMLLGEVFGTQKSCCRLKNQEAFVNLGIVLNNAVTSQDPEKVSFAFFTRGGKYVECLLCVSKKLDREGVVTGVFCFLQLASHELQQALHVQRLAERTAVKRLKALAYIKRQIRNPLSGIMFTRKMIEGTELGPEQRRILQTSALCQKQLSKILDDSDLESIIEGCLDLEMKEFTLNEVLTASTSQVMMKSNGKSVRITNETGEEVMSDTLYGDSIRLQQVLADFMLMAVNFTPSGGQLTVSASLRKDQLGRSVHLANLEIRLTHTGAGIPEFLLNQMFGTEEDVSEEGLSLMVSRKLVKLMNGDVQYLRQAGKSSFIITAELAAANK

The target in assay [5] is B4.

As to B1, the binding result in assay [1] and in assay [2] was “binds” each time.
For the molecule B2, the binding result in assay [3] and in assay [4] was “binds” throughout.
For B3, in assay [5], the “fold strength against the phyB^OPM-APA interaction (m39 on m40)” value is approximately 2 fold.
B4: the binding result in assay [2] is recorded as “binds”.
